Measurements published in the supplement of paper PMC6379048.

Experiments:
Assay in all cases: EC50 of free RNA motif oligo competing protein binding to immobilised probe
MEX3D = target: T1, MEX3D (UniProt Q86XN8)
T1 sequence: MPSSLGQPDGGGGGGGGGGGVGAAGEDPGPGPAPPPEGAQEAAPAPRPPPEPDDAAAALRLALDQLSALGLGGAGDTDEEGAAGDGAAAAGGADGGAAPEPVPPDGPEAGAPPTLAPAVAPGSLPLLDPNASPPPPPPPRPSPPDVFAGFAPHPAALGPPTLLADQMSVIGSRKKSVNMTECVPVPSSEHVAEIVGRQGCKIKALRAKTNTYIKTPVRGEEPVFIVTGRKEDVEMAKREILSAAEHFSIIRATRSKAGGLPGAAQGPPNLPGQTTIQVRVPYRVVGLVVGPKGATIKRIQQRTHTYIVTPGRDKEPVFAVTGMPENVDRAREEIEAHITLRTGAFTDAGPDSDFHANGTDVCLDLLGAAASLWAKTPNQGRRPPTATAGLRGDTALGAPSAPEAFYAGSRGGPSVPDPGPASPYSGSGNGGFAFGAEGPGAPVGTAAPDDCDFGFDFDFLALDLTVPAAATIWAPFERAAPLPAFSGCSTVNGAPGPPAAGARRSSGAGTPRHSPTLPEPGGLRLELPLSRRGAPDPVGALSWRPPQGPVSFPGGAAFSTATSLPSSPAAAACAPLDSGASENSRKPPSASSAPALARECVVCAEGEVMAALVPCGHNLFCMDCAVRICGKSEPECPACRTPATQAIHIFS
In short: (§1)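 Kd was calculated as EC50, taken from a four-parameter log-logistic fit, multiplied by a protein-dependent depletion factor. The assay used HEK293-FT lysate (2.5 mg protein/well) pre-incubated for 1 h at 4°C with free RNA oligos (0 nM to 30 μM), then incubated for 30 min at 4°C with the matching oligos bound through a 5′-amino-C6 linker to NHS-Sepharose beads. Bound proteins were measured by label-free LC-MS/MS and normalised to the control.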

HNRNPM = target: T2, HNRNPM (UniProt P52272)
T2 sequence: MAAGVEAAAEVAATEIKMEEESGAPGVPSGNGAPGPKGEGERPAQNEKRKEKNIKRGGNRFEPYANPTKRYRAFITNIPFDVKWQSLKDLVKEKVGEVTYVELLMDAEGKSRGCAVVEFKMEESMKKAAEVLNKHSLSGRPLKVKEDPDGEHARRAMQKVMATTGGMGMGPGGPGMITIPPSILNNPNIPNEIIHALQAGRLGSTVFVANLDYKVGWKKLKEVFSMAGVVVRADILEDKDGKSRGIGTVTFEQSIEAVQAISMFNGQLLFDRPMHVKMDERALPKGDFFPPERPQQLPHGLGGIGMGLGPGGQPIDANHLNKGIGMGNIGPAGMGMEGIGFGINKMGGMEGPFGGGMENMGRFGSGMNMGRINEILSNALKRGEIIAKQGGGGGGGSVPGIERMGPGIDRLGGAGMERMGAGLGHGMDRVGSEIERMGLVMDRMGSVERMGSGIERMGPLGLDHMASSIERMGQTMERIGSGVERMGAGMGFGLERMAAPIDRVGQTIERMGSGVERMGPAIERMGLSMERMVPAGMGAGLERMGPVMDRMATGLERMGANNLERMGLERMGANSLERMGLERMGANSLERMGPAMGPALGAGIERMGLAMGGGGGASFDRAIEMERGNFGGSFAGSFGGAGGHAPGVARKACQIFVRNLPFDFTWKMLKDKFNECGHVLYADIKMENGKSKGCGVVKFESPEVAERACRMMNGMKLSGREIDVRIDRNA
In short: as §1

TTC37 = TTC37 (UniProt Q6PGP7)
TTC37, sequence (Q6PGP7 whole entry): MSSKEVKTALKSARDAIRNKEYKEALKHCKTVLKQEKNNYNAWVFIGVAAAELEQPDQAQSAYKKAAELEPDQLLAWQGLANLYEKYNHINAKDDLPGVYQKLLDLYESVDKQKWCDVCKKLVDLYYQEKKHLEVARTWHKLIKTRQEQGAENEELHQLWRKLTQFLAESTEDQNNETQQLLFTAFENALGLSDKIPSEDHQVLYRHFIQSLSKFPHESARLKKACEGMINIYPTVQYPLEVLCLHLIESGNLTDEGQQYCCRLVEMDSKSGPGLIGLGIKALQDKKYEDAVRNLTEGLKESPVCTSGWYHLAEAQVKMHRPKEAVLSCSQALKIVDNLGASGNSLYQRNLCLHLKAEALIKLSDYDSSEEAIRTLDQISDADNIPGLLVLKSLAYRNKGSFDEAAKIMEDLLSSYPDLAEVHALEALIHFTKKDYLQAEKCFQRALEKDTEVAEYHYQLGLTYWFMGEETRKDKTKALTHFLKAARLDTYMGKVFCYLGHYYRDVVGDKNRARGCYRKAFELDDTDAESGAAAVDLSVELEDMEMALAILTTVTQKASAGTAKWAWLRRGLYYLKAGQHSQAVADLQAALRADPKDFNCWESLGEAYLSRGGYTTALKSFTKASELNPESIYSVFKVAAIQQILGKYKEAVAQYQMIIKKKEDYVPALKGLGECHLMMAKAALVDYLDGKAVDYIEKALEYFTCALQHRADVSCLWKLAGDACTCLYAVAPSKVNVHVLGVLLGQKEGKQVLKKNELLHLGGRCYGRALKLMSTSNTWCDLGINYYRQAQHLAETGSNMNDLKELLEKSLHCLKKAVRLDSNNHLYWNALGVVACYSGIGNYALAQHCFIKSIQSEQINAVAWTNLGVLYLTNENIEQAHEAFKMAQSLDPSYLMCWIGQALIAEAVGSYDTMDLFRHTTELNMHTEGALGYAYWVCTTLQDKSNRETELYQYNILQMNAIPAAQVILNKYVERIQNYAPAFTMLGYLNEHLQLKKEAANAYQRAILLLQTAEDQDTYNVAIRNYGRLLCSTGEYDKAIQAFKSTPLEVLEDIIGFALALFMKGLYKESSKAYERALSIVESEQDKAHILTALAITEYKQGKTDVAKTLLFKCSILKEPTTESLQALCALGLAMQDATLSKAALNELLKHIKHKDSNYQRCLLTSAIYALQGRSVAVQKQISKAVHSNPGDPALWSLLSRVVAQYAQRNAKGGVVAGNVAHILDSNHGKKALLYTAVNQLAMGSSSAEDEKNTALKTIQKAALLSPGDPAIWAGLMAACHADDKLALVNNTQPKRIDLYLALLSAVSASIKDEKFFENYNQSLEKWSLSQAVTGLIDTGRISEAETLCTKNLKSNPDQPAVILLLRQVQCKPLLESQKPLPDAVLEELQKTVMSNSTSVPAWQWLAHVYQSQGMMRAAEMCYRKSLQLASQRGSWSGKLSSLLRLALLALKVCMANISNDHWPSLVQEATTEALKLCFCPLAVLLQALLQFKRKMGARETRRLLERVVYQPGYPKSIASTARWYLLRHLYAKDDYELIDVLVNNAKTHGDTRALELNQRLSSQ
In short: as §1

IGF2BP2 = IGF2BP2 (UniProt Q9Y6M1)
IGF2BP2, sequence (Q9Y6M1 whole entry): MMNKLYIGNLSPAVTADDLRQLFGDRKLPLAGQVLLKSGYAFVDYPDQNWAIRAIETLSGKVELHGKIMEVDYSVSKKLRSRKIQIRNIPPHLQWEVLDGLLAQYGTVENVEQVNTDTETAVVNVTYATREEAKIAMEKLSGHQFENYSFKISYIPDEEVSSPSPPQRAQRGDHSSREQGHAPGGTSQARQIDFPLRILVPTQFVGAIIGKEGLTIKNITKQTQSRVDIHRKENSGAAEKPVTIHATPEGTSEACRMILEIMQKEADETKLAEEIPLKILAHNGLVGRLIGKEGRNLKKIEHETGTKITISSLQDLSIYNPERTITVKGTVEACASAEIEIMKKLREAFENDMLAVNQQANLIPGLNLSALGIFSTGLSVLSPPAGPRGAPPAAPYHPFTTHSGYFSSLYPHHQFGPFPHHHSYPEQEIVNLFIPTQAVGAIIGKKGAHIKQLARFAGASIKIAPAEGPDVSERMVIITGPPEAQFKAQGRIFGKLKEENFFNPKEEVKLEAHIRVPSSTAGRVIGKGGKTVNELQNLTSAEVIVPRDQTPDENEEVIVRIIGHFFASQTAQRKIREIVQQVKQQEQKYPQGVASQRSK
In short: as §1

ICT1 = ICT1 (UniProt Q14197)
In short: as §1

CSNK2B = CSNK2B (UniProt P67870)
CSNK2B, sequence (P67870 whole entry): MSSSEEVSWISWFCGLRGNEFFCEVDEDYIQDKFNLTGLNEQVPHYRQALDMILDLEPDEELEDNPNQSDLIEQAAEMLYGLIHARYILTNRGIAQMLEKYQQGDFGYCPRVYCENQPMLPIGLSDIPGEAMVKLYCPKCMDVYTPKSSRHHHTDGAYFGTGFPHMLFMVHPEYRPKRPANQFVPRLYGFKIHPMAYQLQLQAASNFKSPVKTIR
In short: as §1

C1QBP = target: T3, C1QBP (UniProt Q07021)
T3 sequence: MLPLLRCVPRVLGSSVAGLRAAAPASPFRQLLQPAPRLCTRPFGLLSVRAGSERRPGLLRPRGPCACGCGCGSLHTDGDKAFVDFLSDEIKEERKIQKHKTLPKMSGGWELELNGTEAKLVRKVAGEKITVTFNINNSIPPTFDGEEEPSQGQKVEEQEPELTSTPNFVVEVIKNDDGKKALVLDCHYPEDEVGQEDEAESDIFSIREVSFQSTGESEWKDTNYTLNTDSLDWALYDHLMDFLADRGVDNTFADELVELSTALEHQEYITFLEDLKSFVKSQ
In short: as §1

SF3B6 = SF3B6 (UniProt Q9Y3B4)
SF3B6, sequence (Q9Y3B4 whole entry): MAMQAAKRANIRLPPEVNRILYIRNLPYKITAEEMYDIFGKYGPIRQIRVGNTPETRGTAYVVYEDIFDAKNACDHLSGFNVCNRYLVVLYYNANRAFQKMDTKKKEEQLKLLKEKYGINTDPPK
In short: as §1

MKRN2 = target: T4, MKRN2 (UniProt Q9H000)
T4 sequence: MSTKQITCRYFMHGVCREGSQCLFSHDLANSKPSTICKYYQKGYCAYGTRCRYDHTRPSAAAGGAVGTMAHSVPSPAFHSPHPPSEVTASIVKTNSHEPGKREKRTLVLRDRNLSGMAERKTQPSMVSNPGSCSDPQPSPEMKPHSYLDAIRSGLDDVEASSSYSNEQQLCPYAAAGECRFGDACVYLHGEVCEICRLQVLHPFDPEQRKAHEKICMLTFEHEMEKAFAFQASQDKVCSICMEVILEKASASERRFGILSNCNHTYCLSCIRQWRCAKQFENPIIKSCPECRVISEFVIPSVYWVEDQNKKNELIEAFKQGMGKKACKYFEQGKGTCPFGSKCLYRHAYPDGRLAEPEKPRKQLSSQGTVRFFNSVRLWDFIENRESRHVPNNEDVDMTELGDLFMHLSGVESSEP
In short: as §1

UAUUUAU
EC50 (MEX3D): 0.714 µM
EC50 (HNRNPM): 6.8 µM
EC50 (TTC37): 0.947 µM

CUGUCCU
EC50 (IGF2BP2): 2.97 µM
EC50 (ICT1): 0.125 µM

AAUAAA
EC50 (CSNK2B): 3.56 µM
EC50 (C1QBP): 1.47 µM
EC50 (SF3B6): 4.62 µM
EC50 (MKRN2): 3.55 µM
